Data on nine molecules can be found in patent publication US20240390531A1 (IMAGINAB, published 2024).

In assay [1] the target is T1, purified murine FAP antigen (murine, UniProt P97321 26-761, limits assumed). Put plainly: ELISA, cross-reactivity (FIG. 57B). In general terms: ELISA stands for enzyme-linked immunosorbent assay.
For assay [2], the target named is FAP (UniProt Q12884 26-760, limits assumed). Put plainly: binding kinetics, method not stated (FIG. 42B).
The target of assay [3] is T2, purified human FAP antigen (human, UniProt Q12884 26-760, limits assumed). Put plainly: ELISA, plate coated with purified human FAP antigen (FIG. 56A-56C). On the procedure:
(§1) Binding kinetics of the novel antigen binding constructs to a purified human FAP antigen was assessed using ELISA. For this assay, a 96 well ELISA plate was coated with the human-FAP antigen diluted to a concentration of 2 mg/mL in coating buffer (0.05M sodium carbonate-bicarbonate buffer, pH 9.6). 100 μl of this coating solution was added to each well in the plate and incubate at 4° C. overnight. The plate was washed 3 times with 300 μl per well of washing buffer (PBS with 0.05% Tween-20). After the last wash, the plate was blocked by adding to each well 200 μl of blocking buffer (PBS with 1% BSA) warmed to room temperature. The plate was then incubated at room temperature for 1 hour under gentle agitation. After blocking, the plate was washed 3 times with 300 μl per well of washing buffer. Dilution samples for each minibody were created by making 2.5× dilutions from a starting sample at 100 ng/mL, or 250 ng/mL, or 1000 ng/mL or 3000 ng/mL in 100 μL sample buffer (PBS with 1% BSA). The dilution samples were transferred to the assay plate and incubated at room temperature for 1 hour under gentle agitation. The plate was then washed 3 times with 300 μl per well of washing buffer.
(§2) Detection was performed by adding 100 μl of HRP labeled detection secondary antibody at an appropriate dilution and incubating the plate at room temperature for 1 hour under gentle agitation. The plate was then washed 3 times with 300 μl per well of washing buffer. For color development, 100 μl of TMB substrate regent, pre-warmed to room temperature, was added to the plate and incubated in the dark at room temperature for 15 min. The reaction was then stopped by adding 100 μl of 650 nm stop solution to the plate and mixed for 1 min at room temperature under gentle agitation. The plate is recorded by reading OD at 650 nm in a plate reader within 20 min after terminating the reaction.

Assay [4] concerns the target T1, purified murine FAP antigen. Put plainly: ELISA, cross-reactivity (FIG. 92).
Assay [5] deals with T2, purified human FAP antigen. The assay can be described thus: ELISA, plate coated with purified human FAP antigen (FIG. 91B). On the procedure:
as §1

For assay [6], the target named is T2, purified human FAP antigen. Put plainly: ELISA, plate coated with purified human FAP antigen (FIG. 91E). On the procedure:
as §1

Assay [7] concerns the target T2, purified human FAP antigen. The assay can be described thus: ELISA, plate coated with purified human FAP antigen (FIG. 91D). On the procedure: as §1
In assay [8] the target is T2, purified human FAP antigen. The assay can be described thus: ELISA, plate coated with purified human FAP antigen (FIG. 91F). The method, then: as §1
Assay [9] concerns the target T1, purified murine FAP antigen. Put plainly: ELISA, cross-reactivity (FIG. 57A).
In assay [10] the target is T2, purified human FAP antigen. The assay can be described thus: ELISA, plate coated with purified human FAP antigen (FIG. 56F-56G). On the procedure: as §1, §2

Substitutions are numbered along the chain they refer to. In names and notes the source's numbering stands.

T1 sequence (P97321 26-761 limits assumed): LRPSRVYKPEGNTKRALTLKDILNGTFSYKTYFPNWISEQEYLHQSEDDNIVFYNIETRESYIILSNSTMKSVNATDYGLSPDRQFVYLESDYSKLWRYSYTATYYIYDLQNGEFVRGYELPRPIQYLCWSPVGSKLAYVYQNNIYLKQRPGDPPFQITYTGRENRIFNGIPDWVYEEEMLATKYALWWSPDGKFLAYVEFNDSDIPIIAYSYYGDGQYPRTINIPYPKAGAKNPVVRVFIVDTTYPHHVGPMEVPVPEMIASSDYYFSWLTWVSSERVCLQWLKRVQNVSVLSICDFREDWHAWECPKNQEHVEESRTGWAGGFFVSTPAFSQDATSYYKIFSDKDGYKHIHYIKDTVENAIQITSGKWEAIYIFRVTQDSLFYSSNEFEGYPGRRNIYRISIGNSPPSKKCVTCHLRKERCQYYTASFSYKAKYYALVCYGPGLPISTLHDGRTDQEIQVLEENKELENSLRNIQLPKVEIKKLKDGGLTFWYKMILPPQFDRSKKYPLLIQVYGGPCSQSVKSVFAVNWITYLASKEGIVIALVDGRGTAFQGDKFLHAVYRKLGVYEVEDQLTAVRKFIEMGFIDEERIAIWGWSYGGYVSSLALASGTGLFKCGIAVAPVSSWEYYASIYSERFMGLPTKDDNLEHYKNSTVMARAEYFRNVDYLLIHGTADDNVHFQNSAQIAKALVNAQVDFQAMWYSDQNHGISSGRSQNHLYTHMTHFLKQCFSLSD

B1: IAB16M2-37 (other)
chain: QVQLVQSGAEVKKPGASVKVSCKASGYTFTEYTIHWVRQAPGQRLEWIGGINPNNGIPNYNQKFKGRVTITVDTSASTAYMELSSLRSEDTAVYYCARRRIAYGYDEGHAMDYWGQGTLVTVSSGSTSGGGSGGGSGGGGSSDIVMTQSPDSLAVSLGERATINCKSSQSLLYSRNQKNYLAWYQQKPGQPPKLLIFWASTRESGVPDRFSGSGSGTDFTLTISRLEPEDFAVYYCQQYYSYPLTFGQGTKVEIKEPKSSDKTHTCPPCPPCGGGSSGGGSGGQPREPQVYTLPPSREEMTKNQVSLTCLVKGFYPSDIAVEWESNGQPENNYKTTPPVLDSDGSFFLYSKLTVDKSRWQQGNVFSCSVMHEALHNHYTQKSLSLSPG
notes: also called IAB16B2-37
What is called Kd is the free concentration of one partner at which half of the binding sites on the other are occupied at equilibrium, for simple one-to-one binding. Read a low Kd as a tighter complex. One may read the koff as a measure of how fast the partners let go of each other. Low readings indicate a long-lived complex, high ones a short-lived complex. Usually kon stands for the second-order rate constant of association. Lower therefore signals slow association. Regarding B1, the “fold change of KD, murine FAP against human FAP” value in assay [1] is ~10 fold. In assay [2], the Kd is 1.15 nM, the koff came to 0.00108 s⁻¹ and the kon came to 935000 M⁻¹ s⁻¹. Also, the Kd in [3] was ~0.1 nM.

B2: IAB16M2-43 (other)
chain: QVQLQESGPGLVKPSETLSLTCTVSGFSLTNYDINWIRQPPGKGLEWIGLIWTGGGTNYNPSLKSRVTISKDTSKNQFSLKLSSVTAADTAVYYCVRGGPLVWYALDYWGQGTLVTVSSGSTSGGGSGGGSGGGGSSDIQMTQSPSSLSASVGDRVTITCKASQDVSTAVAWYQQKPGKAPKLLIYSASYRYTGVPSRFSGSGSGTDFTFTISSLQPEDIATYYCQQHYSNPRTFGGGTKVEIKEPKSSDKTHTCPPCPPCGGGSSGGGSGGQPREPQVYTLPPSREEMTKNQVSLTCLVKGFYPSDIAVEWESNGQPENNYKTTPPVLDSDGSFFLYSKLTVDKSRWQQGNVFSCSVMHEALHNHYTQKSLSLSPG
As for B2, the binding result in assay [4] is “binds”. Moreover, the dissociation constant (Kd) in assay [5] is ~0.1 nM.

B3: IAB16M2-52 (other)
chain: B2 chain with Q140V
As to B3, the Kd in [6] is ~0.1 nM.

B4: IAB16M2-51 (HC-N76S) (other)
chain: B2 chain with T73N
With B4, the Kd in assay [7] was ~0.1 nM.

B5: IAB16M2-53 (other)
chain: B2 chain with N76S
On to B5, for which the Kd in [6] is ~0.1 nM.

B6: IAB16M1-42 (other)
chain: DIQMTQSPSSLSASVGDRVTITCKASQDVSTAVAWYQQKPGKAPKLLIYSASYRYTGVPSRFSGSGSGTDFTFTISSLQPEDIATYYCQQHYSNPRTFGGGTKVEIKGSTSGGGSGGGSGGGGSSQVQLQESGPGLVKPSETLSLTCTVSGFSLTNYDINWIRQPPGKGLEWIGLIWTGGGTNYNPSLKSRVTISKDTSKNQFSLKLSSVTAADTAVYYCVRGGPLVWYALDYWGQGTLVTVSSEPKSSDKTHTCPPCPPCGGGSSGGGSGGQPREPQVYTLPPSREEMTKNQVSLTCLVKGFYPSDIAVEWESNGQPENNYKTTPPVLDSDGSFFLYSKLTVDKSRWQQGNVFSCSVMHEALHNHYTQKSLSLSPG
Take B6: in assay [5], the dissociation constant (Kd) is ~0.1 nM.

B7: IAB16M2-50 (other)
chain: DVQLVESGGGLVKPGGSLRLSCTVSGFTFSSYTMSWVRQAPGKGLEWVSTISSGGSYTYYADSVKGRFTISRDNAKNSLYLQMNSLRAEDTAVYYCTRDQVGYAMDYWGQGTLVTVSSGSTSGGGSGGGSGGGGSSDIQMTQSPSSLSASVGDRVTITCKASQDVGIAVAWYQQKPGKAPKLLIYWASTRHTGVPSRFSGSGSGTDFTFTISSLQPEDIATYYCQQYSRYPYTFGQGTKLEIKEPKSSDKTHTCPPCPPCGGGSSGGGSGGQPREPQVYTLPPSREEMTKNQVSLTCLVKGFYPSDIAVEWESNGQPENNYKTTPPVLDSDGSFFLYSKLTVDKSRWQQGNVFSCSVMHEALHNHYTQKSLSLSPG
As to B7, in assay [8], the equilibrium dissociation constant (Kd) was ~10 nM.

B8: IAB16M2-48 (other)
chain: QVQLVQSGAEVKKPGSSVKVSCKASGFSLTNYDINWVRQAPGQGLEWMGLIWTGGGTNYNQKFQGRVTITKDNSTSTAYMELSSLRSEDTAVYYCVRGGPLVWYALDYWGQGTLVTVSSGSTSGGGSGGGSGGGGSSDIQMTQSPSSLSASVGDRVTITCKASQDVSTAVAWYQQKPGKAPKLLIYSASYRYTGVPSRFSGSGSGTDFTLTISSLQPEDFATYYCQQHYSNPRTFGQGTKVEIK
As for B8, in [7], the Kd was ~0.1 nM.

B9: IAB16C3-26 (other)
chain: EIVLTQSPGTLSLSPGERATLSCRASQSVSRSYLAWYQQKPGQAPRLLIIGASTRATGIPDRFSGSGSGTDFTLTISRLEPEDFAVYYCQQGQVIPPTFGQGTKVEIKGGGSGGGGEVQLLESGGGLVQPGGSLRLSCAASGFTFSSHAMSWVRQAPGKGLEWVSAIWASGEQYYADSVKGRFTISRDNSKNTLYLQMNSLRAEDTAVYYCAKGWLGNFDYWGQGTLVTVSSGGCPPCPPC
As for B9, in [9], the binding result is “binds”. In addition, in assay [10], the Kd is ~1 nM.
